From patent US20170102393A1 come the findings set out here.

Assay [1] has as its target integrin β7 (β7 receptor) on cynomolgus monkey peripheral-blood T cells / lymphocytes (cynomolgus monkey (Macaca fascicularis)). The assay can be described thus: cell-based or functional assay.
Assay [2] deals with αEβ7 integrin (Homo sapiens (Human)) (UniProt P38570). Put plainly: blocking of E-cadherin binding to αEβ7; assay not described.
In assay [3] the target is integrin β7 (β7 receptor) on cynomolgus monkey peripheral-blood T cells / lymphocytes (cynomolgus monkey (Macaca fascicularis)). Put plainly: β7 receptor occupancy by flow cytometry against serum concentration, dosed cynomolgus monkeys.
Assay [4] concerns the target α4β7 integrin (Homo sapiens (Human)) (UniProt P13612). Put plainly: blocking of α4β7 interactions with MadCAM-1, VCAM-1 and fibronectin (range told for the three ligands); assay not described.

UniProt P38570, sequence (P38570 19-1179 limits assumed, form in doubt, chain 1 of 2): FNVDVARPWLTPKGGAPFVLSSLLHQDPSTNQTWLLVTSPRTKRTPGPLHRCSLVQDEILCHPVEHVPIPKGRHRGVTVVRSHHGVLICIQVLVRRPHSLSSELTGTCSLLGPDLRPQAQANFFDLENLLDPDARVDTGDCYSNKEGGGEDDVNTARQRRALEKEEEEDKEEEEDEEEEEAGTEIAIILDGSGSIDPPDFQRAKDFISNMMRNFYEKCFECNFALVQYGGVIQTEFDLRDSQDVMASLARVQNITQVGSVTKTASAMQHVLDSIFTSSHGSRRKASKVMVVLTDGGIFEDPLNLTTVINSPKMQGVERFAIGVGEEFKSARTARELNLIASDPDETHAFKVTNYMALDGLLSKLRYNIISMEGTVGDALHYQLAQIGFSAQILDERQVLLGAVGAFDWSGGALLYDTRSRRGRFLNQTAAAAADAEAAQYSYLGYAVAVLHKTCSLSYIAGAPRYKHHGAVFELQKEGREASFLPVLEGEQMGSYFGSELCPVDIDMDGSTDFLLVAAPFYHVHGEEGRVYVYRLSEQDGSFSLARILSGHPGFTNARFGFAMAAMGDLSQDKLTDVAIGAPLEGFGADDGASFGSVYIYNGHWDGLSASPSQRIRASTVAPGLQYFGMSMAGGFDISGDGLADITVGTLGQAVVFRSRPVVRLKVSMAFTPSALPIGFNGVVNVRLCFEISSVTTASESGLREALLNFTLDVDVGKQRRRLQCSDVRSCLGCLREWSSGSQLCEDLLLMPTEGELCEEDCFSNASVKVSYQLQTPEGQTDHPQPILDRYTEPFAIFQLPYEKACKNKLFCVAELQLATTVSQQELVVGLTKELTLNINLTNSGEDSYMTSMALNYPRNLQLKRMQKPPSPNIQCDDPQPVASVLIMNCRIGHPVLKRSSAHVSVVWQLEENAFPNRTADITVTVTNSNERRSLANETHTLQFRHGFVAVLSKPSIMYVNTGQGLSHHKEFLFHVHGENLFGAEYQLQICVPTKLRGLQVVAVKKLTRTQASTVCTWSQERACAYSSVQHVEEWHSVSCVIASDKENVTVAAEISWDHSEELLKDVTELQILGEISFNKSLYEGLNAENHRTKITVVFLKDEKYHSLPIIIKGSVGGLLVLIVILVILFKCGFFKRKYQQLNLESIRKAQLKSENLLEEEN
UniProt P38570, sequence (beta, as listed by the source limits assumed, form in doubt, chain 2 of 2): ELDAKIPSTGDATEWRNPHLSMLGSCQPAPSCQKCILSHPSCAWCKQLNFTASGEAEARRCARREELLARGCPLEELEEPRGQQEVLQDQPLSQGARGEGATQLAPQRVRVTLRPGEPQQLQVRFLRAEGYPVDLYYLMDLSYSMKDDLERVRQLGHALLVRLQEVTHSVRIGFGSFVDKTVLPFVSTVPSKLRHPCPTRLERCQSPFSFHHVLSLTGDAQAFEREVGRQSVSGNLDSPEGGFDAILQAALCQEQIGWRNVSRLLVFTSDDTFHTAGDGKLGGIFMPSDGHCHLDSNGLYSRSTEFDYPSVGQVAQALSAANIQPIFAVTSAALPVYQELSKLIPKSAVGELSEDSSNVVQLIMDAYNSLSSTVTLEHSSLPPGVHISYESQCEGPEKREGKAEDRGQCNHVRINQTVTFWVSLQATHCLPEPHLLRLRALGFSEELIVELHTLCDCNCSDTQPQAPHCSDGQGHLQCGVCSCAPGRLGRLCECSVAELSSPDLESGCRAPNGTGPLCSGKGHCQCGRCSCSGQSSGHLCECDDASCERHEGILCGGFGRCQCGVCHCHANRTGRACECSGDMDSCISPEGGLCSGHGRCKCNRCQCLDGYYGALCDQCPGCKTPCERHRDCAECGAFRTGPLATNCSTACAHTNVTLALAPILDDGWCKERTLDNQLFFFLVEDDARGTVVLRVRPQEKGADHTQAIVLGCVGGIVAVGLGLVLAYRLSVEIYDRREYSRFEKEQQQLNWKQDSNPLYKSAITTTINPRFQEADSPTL

B1: rhuMAb Beta7, recombinant humanized monoclonal anti-beta7 integrin antibody (antibody, from a related filing, V domains shown)
VH: EVQLVESGGGLVQPGGSLRLSCAASGFFITNNYWGWVRQAPGKGLEWVGYISYSGSTSYNPSLKSRFTISRDTSKNTFYLQMNSLRAEDTAVYYCARTGSSGYFDFWGQGTLVTVSS
VL: DIQMTQSPSSLSASVGDRVTITCRASESVDDLLHWYQQKPGKAPKLLIKYASQSISGVPSRFSGSGSGTDFTLTISSLQPEDFATYYCQQGNSLPNTFGQGTKVEIKR
The IC50 is the midpoint of a concentration-inhibition curve. For B1, in assay [1], the CD45RA+ β7intermediate T cells in peripheral blood, increase over baseline, four weekly doses of 25 mg/kg, cynomolgus monkeys was 2.5 fold; the CD45RA- β7high T cells in peripheral blood, increase over baseline, four weekly doses of 25 mg/kg, cynomolgus monkeys stood at 5 fold; the group mean CD45RA- β7high CD4+ lymphocytes in peripheral blood, increase over baseline, 5 mg/kg IV weekly, cynomolgus monkeys was in the range of 4 to 5 fold; the group mean CD45RA- β7high CD4+ lymphocytes in peripheral blood, increase over baseline, 15 or 50 mg/kg IV or SC weekly, cynomolgus monkeys was 5 to 6 fold. Also, in assay [2], the IC50 is 5 nM. In assay [3], this molecule displayed a serum concentration that maintains complete β7-receptor saturation of 1 to 10 µg/mL and a serum level below which available β7 is detected (desaturation) of 10 µg/mL. Further, in assay [4], the IC50 is 0.07 to 0.1 nM.
